The values below come from patent US7507788B2, “Peptides and methods for cell death regulation” (Rappaport Family Institute for Research in the Medical …, priority 2002, dated 2009).

The target in assay [1] is T1, human XIAP (Homo sapiens, UniProt P98170).
T1 construct: host or cells: cell-free in vitro transcription-translation; the partner His-UBCH5C was made in E. coli BL21 (pLysS)
Description: In vitro ubiquitination / self-conjugation reaction with 35S-labeled XIAP. It counts as biochemical. Particulars: 35S-XIAP; FIG. 8, 15B, 16, 17. How it is done:
^35S-methionine labeled mutant and wild type DIAP1, or wild type XIAP were generated in an in vitro transcription-translation system (Promega) from diap1-pET14b, diap1^21-4S pET14b and xiap pcDNA3.1 plasmids. For purification of His-UBCD1 and His-UBCH5C, ubcD1-pET14b and ubcH5C-pT7-7 were expressed in BL21 (pLysS) and purified on a Ni-column according to the manufacturer's protocol (Novagen). In vitro ubiquitination assays were carried out in a total volume of 12.5 μl and contained: ^35S-methionine labeled wild type or mutant DIAP1 or Wild type XIAP (approximately 10,000 cpm), and 250ng E1 (made in baculovirus; vector is the kind gift of Dr. Kazuhiro Iwai, University of Osaka, Osaka, Japan). Unless otherwise stated, 1.2 μg His-UBCD1 or His-UBCH5C was used in each reaction. Reaction mixture contained also 40 mM Tris-HCl, pH 7.6, 5 mM MgCl2, 1 mM DTT, 5 μg ubiquitin, 100 ng Ubiquitin-aldehyde, 2 mM ATPγS [Adenosine 5′-O-(3-thiotriphosphate)]. Reactions were incubated for 50 min at 37° C., and resolved, following addition of a sample buffer on SDS-PAGE (10%). Gels were dried and proteins visualized via Phosphorimaging (Fuji, Japan).

The target in assay [2] is T2, DIAP1 (Drosophila melanogaster, UniProt Q24306).
T2 construct: The full length ORF of diap1 was subcloned into the BamH1 site of pET14b (Novagen); His (N); host or cells: cell-free in vitro transcription-translation (reticulocyte lysate); the partner His-UBCD1 was made in E. coli BL21 (pLysS)
T2 sequence (Q24306 1-438): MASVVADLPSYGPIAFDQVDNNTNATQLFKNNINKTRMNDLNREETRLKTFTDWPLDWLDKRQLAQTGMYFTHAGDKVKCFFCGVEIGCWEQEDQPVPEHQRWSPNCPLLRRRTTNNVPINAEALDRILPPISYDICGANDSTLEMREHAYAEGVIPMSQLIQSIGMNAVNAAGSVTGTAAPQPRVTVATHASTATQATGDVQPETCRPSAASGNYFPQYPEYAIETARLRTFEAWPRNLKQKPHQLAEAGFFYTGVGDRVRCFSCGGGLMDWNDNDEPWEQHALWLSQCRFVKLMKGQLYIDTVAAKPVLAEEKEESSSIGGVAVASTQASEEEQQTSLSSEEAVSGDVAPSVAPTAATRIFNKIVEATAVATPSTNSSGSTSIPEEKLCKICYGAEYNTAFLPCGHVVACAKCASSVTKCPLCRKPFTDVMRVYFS
The assay is described as follows: In vitro ubiquitination / self-conjugation reaction with 35S-labeled DIAP1. As to conditions: 35S-DIAP1 with E1, UBCD1 and ubiquitin; SDS-PAGE; FIG. 13-15A. Type of assay: biochemical. The method, then: ^35S-methionine labeled mutant and wild type DIAP1, or wild type XIAP were generated in an in vitro transcription-translation system (Promega) from diap1-pET14b, diap1^21-4S pET14b and xiap pcDNA3.1 plasmids. For purification of His-UBCD1 and His-UBCH5C, ubcD1-pET14b and ubcH5C-pT7-7 were expressed in BL21 (pLysS) and purified on a Ni-column according to the manufacturer's protocol (Novagen). In vitro ubiquitination assays were carried out in a total volume of 12.5 μl and contained: ^35S-methionine labeled wild type or mutant DIAP1 or Wild type XIAP (approximately 10,000 cpm), and 250ng E1 (made in baculovirus; vector is the kind gift of Dr. Kazuhiro Iwai, University of Osaka, Osaka, Japan). […]
In order to determine whether both amino acid consensus sequences described above are essential for IAP degradation, peptides were generated, with amino acid sequences as described in Tables 1, 3 and 5 above, containing one of each amino acid consensus sequence, or both, and their ability to stimulate in vitro IAP ubiquitination was assessed (FIG. 13). ^35S-methionine labeled wild type DIAP1 was incubated with 250 ng E1 and ubiquitin, with or without the addition of the RPR wild type protein, or peptides containing the RHG amino acid consensus sequence of the RPR HID or GRIM proteins, and the reaction products were resolved by SDS-PAGE.

T1 sequence (P98170 whole entry): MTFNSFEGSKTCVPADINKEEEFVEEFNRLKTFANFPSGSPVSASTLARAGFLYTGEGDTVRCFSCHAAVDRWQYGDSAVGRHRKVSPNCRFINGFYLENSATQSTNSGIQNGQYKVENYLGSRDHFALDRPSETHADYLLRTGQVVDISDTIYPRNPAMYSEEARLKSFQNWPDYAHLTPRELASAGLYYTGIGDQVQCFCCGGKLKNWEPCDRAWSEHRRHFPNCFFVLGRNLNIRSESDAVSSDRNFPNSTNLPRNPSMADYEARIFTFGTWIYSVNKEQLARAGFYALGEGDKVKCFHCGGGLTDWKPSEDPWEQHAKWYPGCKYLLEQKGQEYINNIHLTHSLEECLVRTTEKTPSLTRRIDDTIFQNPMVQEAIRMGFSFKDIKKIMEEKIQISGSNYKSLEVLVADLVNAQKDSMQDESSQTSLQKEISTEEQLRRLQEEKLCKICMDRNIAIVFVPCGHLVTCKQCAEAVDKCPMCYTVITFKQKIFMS

As to “AVPFYLPE QWRFLATVVL (AVPFYLPEQWRFLATVVL; Drosophila melanogaster) [Peptide H9-W, Hid RHG plus Reaper Trp-box peptide]”, the “stimulation of XIAP auto-ubiquitination / self-conjugation in vitro” value in assay [1] is given as “greatest effect”.
In the case of “AVAFYIPDQATLLR QWRFLATVVL (AVAFYIPDQATLLRQWRFLATVVL; Drosophila melanogaster) [Peptide R15W, Reaper RHG plus Trp-box peptide]”, the “stimulation of XIAP auto-ubiquitination / self-conjugation in vitro” value in assay [1] is “greatest effect”.

B1: Reaper: wild type Drosophila IAP inhibitor (IAPi) protein REAPER (RPR) (protein)
chain: MAVAFYIPDQATLLREAEQKEQQILRLRESQWRFLATVVLETLRQYTSCHPKTGRKSGKYRKPSQ
As to B1, in assay [2], the “stimulation of IAP (DIAP1) self-conjugation / auto-ubiquitination in vitro” value is “resulted in auto-ubiquitination”. Also, in assay [1], the “stimulation of XIAP auto-ubiquitination / self-conjugation in vitro” value is “strongly stimulated”.
